Test results reported in patent publication US20260258111A1.

Biological target: WT
Assay: flow cytometry of CHO cells displaying the WT truncated domain, stained with labelled TRAIL; panel stands above the 2 ug/mL panel, its own TRAIL concentration is not labelled

Chain of WT (chain, as listed by the source limits assumed, form in doubt): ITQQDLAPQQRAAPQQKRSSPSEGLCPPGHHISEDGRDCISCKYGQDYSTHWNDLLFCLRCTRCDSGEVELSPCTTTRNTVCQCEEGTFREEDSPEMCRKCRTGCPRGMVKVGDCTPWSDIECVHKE

In the case of “APC-TRAIL (from UniProt P50591 114-281) (ligand)”, the APC-A, SSC-A subset (percent of cells in the gate) is reported as 3.84%.
